According to the supplement of paper PMC9112550, “Optimization of the antimicrobial peptide Bac7 by deep mutational scanning” (BMC Biology, 2022):

Test system: Escherichia coli TOP10
Test: shrunken log2 fold change of peptide-encoding DNA abundance (4.5 h post-induction vs induction); higher = less antimicrobial activity (less host growth inhibition)
Conditions: time post-induction: 4.5 h; library: site-saturation at positions 5, 18, 19, 20
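Also: peptides expressed intracellularly from a pBAD plasmid library in pooled LB shake-flask culture, induced with 0.3% L-arabinose, DNA abundance read by NGS, three biological replicates, DESeq2 with apeglm shrinkage.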

Sequence	shrunken log2 fold change
RRIRDRPPRLPRPRPRPSCAPRP	-0.0293
RRIRDRPPRLPRPRPRPSCWPRP	0.585
RRIRDRPPRLPRPRPRPSDQPRP	0.204
RRIRDRPPRLPRPRPRPSDTPRP	-0.343
RRIRDRPPRLPRPRPRPSEAPRP	0.0437
RRIRDRPPRLPRPRPRPSEVPRP	0.561
RRIRDRPPRLPRPRPRPSFTPRP	-0.404
RRIRDRPPRLPRPRPRPSFWPRP	0.585
RRIRDRPPRLPRPRPRPSFYPRP	-0.128
RRIRDRPPRLPRPRPRPSHGPRP	-0.0107
RRIRDRPPRLPRPRPRPSHNPRP	-0.314
RRIRDRPPRLPRPRPRPSKMPRP	-0.0126
RRIRDRPPRLPRPRPRPSKWPRP	-0.196
RRIRDRPPRLPRPRPRPSKYPRP	-0.455
RRIRDRPPRLPRPRPRPSMFPRP	-0.144
RRIRDRPPRLPRPRPRPSNNPRP	-0.487
RRIRDRPPRLPRPRPRPSNQPRP	-0.315
RRIRDRPPRLPRPRPRPSPFPRP	-0.0929
RRIRDRPPRLPRPRPRPSPWPRP	0.188
RRIRDRPPRLPRPRPRPSQDPRP	-0.0683
RRIRDRPPRLPRPRPRPSQYPRP	-0.697
RRIRDRPPRLPRPRPRPSRNPRP	0.326

Sequence	shrunken log2 fold change
RRIRDRPPRLPRPRPRPSRPPRP	0.452
RRIRDRPPRLPRPRPRPSSDPRP	0.412
RRIRDRPPRLPRPRPRPSSQPRP	-0.0971
RRIRDRPPRLPRPRPRPSSRPRP	-0.0968
RRIRDRPPRLPRPRPRPSSSPRP	0.135
RRIRDRPPRLPRPRPRPSTEPRP	0.301
RRIRDRPPRLPRPRPRPSTNPRP	-0.16
RRIRDRPPRLPRPRPRPSTRPRP	0.152
RRIRDRPPRLPRPRPRPSVTPRP	0.0709
RRIRDRPPRLPRPRPRPSWMPRP	-0.166
RRIRDRPPRLPRPRPRPSWWPRP	0.276
RRIRDRPPRLPRPRPRPSYDPRP	-0.175
RRIRDRPPRLPRPRPRPSYRPRP	0.0164
RRIRDRPPRLPRPRPRPTCAPRP	0.927
RRIRDRPPRLPRPRPRPTDEPRP	0.0606
RRIRDRPPRLPRPRPRPTDLPRP	-0.0718
RRIRDRPPRLPRPRPRPTEVPRP	0.121
RRIRDRPPRLPRPRPRPTFEPRP	0.527
RRIRDRPPRLPRPRPRPTFMPRP	-0.07
RRIRDRPPRLPRPRPRPTFQPRP	0.0497
RRIRDRPPRLPRPRPRPTFSPRP	0.743
RRIRDRPPRLPRPRPRPTGEPRP	0.119

Sequence	shrunken log2 fold change
RRIRDRPPRLPRPRPRPTGKPRP	0.0507
RRIRDRPPRLPRPRPRPTGMPRP	-0.00655
RRIRDRPPRLPRPRPRPTGRPRP	0.134
RRIRDRPPRLPRPRPRPTKHPRP	-0.0699
RRIRDRPPRLPRPRPRPTKSPRP	0.366
RRIRDRPPRLPRPRPRPTPGPRP	0.468
RRIRDRPPRLPRPRPRPTRDPRP	0.734
RRIRDRPPRLPRPRPRPTRHPRP	0.42
RRIRDRPPRLPRPRPRPTSTPRP	0.231
RRIRDRPPRLPRPRPRPTTAPRP	1.3
RRIRDRPPRLPRPRPRPTVPPRP	-0.326
RRIRDRPPRLPRPRPRPTVTPRP	0.853
RRIRDRPPRLPRPRPRPTWVPRP	0.323
RRIRDRPPRLPRPRPRPTWYPRP	-0.238
RRIRDRPPRLPRPRPRPTYDPRP	-0.208
RRIRDRPPRLPRPRPRPTYYPRP	-0.204
RRIRDRPPRLPRPRPRPVCIPRP	0.0226
RRIRDRPPRLPRPRPRPVDIPRP	-0.0995
RRIRDRPPRLPRPRPRPVFLPRP	-0.208
RRIRDRPPRLPRPRPRPVHMPRP	0.111
RRIRDRPPRLPRPRPRPVIIPRP	-0.316
RRIRDRPPRLPRPRPRPVKFPRP	0.284

Sequence	shrunken log2 fold change
RRIRDRPPRLPRPRPRPVKHPRP	-0.0698
RRIRDRPPRLPRPRPRPVPVPRP	-0.346
RRIRDRPPRLPRPRPRPVQNPRP	0.577
RRIRDRPPRLPRPRPRPVQWPRP	0.0426
RRIRDRPPRLPRPRPRPVSPPRP	-0.134
RRIRDRPPRLPRPRPRPVSTPRP	0.0725
RRIRDRPPRLPRPRPRPVTDPRP	0.0222
RRIRDRPPRLPRPRPRPVTQPRP	-0.0479
RRIRDRPPRLPRPRPRPVTTPRP	0.0135
RRIRDRPPRLPRPRPRPVVCPRP	0.26
RRIRDRPPRLPRPRPRPVVFPRP	0.457
RRIRDRPPRLPRPRPRPVVGPRP	0.642
RRIRDRPPRLPRPRPRPVVLPRP	0.268
RRIRDRPPRLPRPRPRPVWYPRP	-0.134
RRIRDRPPRLPRPRPRPVYNPRP	-0.00379
RRIRDRPPRLPRPRPRPVYRPRP	-0.0426
RRIRDRPPRLPRPRPRPWDAPRP	0.207
RRIRDRPPRLPRPRPRPWDGPRP	-0.0761
RRIRDRPPRLPRPRPRPWGTPRP	0.0812
RRIRDRPPRLPRPRPRPWHNPRP	-0.144
RRIRDRPPRLPRPRPRPWKDPRP	-0.0129
RRIRDRPPRLPRPRPRPWKQPRP	-0.0551

Sequence	shrunken log2 fold change
RRIRDRPPRLPRPRPRPWLDPRP	0.0593
RRIRDRPPRLPRPRPRPWNSPRP	-0.237
RRIRDRPPRLPRPRPRPWQNPRP	-0.0811
RRIRDRPPRLPRPRPRPWRQPRP	-0.114
RRIRDRPPRLPRPRPRPWSMPRP	-0.0018
RRIRDRPPRLPRPRPRPWSPPRP	0.127
RRIRDRPPRLPRPRPRPWTDPRP	0.023
RRIRDRPPRLPRPRPRPWWHPRP	0.133
RRIRDRPPRLPRPRPRPYCVPRP	0.00706
RRIRDRPPRLPRPRPRPYDTPRP	-0.0872
RRIRDRPPRLPRPRPRPYEMPRP	-0.000896
RRIRDRPPRLPRPRPRPYFDPRP	-0.0823
RRIRDRPPRLPRPRPRPYFVPRP	-0.362
RRIRDRPPRLPRPRPRPYHPPRP	-0.449
RRIRDRPPRLPRPRPRPYKEPRP	-0.372
RRIRDRPPRLPRPRPRPYLMPRP	-0.187
RRIRDRPPRLPRPRPRPYMFPRP	-0.244
RRIRDRPPRLPRPRPRPYMTPRP	-0.0206
RRIRDRPPRLPRPRPRPYNCPRP	-0.0352
RRIRDRPPRLPRPRPRPYNRPRP	-0.361
RRIRDRPPRLPRPRPRPYQIPRP	-0.238
